Molecular target: T1, hex-ΔN61-NS3 (cc-hex fused NS3) (Human norovirus GI, UniProt Q83883 460-761)
T1 sequence: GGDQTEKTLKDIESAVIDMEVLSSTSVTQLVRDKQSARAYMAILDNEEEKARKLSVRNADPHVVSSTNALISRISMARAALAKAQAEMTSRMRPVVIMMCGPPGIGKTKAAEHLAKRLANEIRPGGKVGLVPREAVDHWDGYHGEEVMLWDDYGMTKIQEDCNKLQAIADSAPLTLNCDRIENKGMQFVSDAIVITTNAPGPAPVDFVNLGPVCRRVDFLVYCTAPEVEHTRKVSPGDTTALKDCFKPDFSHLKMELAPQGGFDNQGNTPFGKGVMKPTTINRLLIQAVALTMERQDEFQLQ
Assay: EMSA; 20 µM protein, 0.2 nM RNA, 5 mM Mg2+; EMSA: 25 mM HEPES pH 8.0, 30 mM NaCl, 5 mM MgCl2, 2 mM DTT, RNasin, 5% glycerol, 37 °C 1 h, 6% native PAGE; tweezers buffer not in material
Details: protein: recombinant; tags: N-terminal 32-residue cc-hex replaces residues 1-61; chain copies: 6; label: 5' HEX; single strand, 42 nt

Binder: CAUUAUCGGAUAGUGGAACCUAGCUUCGACUAUCGGAUAAUC (ssRNA) [RNA1]
- binding result: binds

From paper PMC13683342, “Integrative structure of norovirus NS3 suggests a role in RNA transport”
